From US12662530B2, “Anti-ADM-antibodies binding to the free N-terminus for accelerated transition of ADM-Gly to bio-ADM in patients with ADM-Gly/ bio-ADM ratio above a threshold and combination with vitamin C” (SphingoTec GmbH, priority 2020, dated 2026)

Assay: Single escalating i.v. doses in healthy male subjects (phase I): ADM values and safety
Type: in vivo, human
Description: The study was described in Geven et al. (Geven et al. 2017. Intensive Care Med Exp 5 (Suppl 2): 0427). Briefly, the study was conducted in healthy male subjects as a randomized, double-blind, placebo-controlled, study with single escalating doses of NT-H antibody (HAM8101) administered as intravenous (i.v.) infusion in 3 sequential groups of 8 healthy male subjects each (1st group 0.5 mg/kg, 2nd group 2 mg/kg, 3rd group 8 mg/kg) of healthy male subjects (n=6 active, n=2 placebo for each group). The main inclusion criteria were written informed consent, age 18-35 years, agreement to use a reliable way of contraception and a BMI between 18 and 30 kg/m^2. Subjects received a single i.v. dose of NT-H antibody (HAM8101) (0.5 mg/kg; 2 mg/kg; 8 mg/kg) or placebo by slow infusion over a 1-hour period in a research unit.

## HAM8101: humanized N-terminal anti-ADM antibody, heavy chain SEQ ID No. 35, light chain SEQ ID No. 36
Healthy human individuals, 0.5, 2, 8 mg/kg i.v., FIG. 10
  time within which ADM-values rapidly increased after administration: ≤ 1.5 h
Healthy male subjects, single i.v. dose 0.5, 2, 8 mg/kg
  safety: heart rate, mean arterial pressure, peripheral oxygen saturation, temperature: did not influence heart rate, mean arterial pressure, peripheral oxygen saturation or temperature
Healthy male subjects, single i.v. dose 0.5, 2, 8 mg/kg versus placebo
  routine haematological and biochemical safety laboratory measurements: no significant differences between groups
